Data taken from patent US20220064322A1 (JACOBIO PHARMACEUTICALS, published 2022).
Changes are numbered by the printed parent chain. Read-outs that look alike come from different tables or passages of the source.

B1: 94H1L3 hIgG2 (antibody)
heavy: QVQLVQSGAEVKKPGASVKVSCKASGYTFTSYWMHWVRQAPGQGLEWMGYINPSSGYTKSNQKFKDRVTMTADTSTSTAYMELSSLRSEDTAVYYCGRWLLSAWFAYWGQGTLVTVSSASTKGPSVFPLAPCSRSTSESTAALGCLVKDYFPEPVTVSWNSGALTSGVHTFPAVLQSSGLYSLSSVVTVPSSNFGTQTYTCNVDHKPSNTKVDKTVERKCCVECPPCPAPPVAGPSVFLFPPKPKDTLMISRTPEVTCVVVDVSHEDPEVQFNWYVDGVEVHNAKTKPREEQFNSTFRVVSVLTVVHQDWLNGKEYKCKVSNKGLPAPIEKTISKTKGQPREPQVYTLPPSREEMTKNQVSLTCLVKGFYPSDIAVEWESNGQPENNYKTTPPMLDSDGSFFLYSKLTVDKSRWQQGNVFSCSVMHEALHNHYTQKSLSLSPGK
light: DIQMTQSPSSLSASVGDRVTITCKASQDINTYLSWFQQKPGKSPKSLIYRSNILVDGVPSRFSGSGSGQDYTLTISSLQPEDFAIYYCLQYDDFPYTFGQGTKLEIKRTVAAPSVFIFPPSDEQLKSGTASVVCLLNNFYPREAKVQWKVDNALQSGNSQESVTEQDSKDSTYSLSSTLTLSKADYEKHKVYACEVTHQGLSSPVTKSFNRGEC
B2: JB24H3L2 (antibody, human IgG1, kappa, V domains shown)
VH: QVQLVQSGAEVKKPGASVKMSCKASGYTFTDYNMHWVKQSHGKSLEWIGYIKPHNAGTTYNPKFEGRATLTVDTSASTAYMELRSLRSEDTAVYYCVRSDFLYWYFDVWGQGTTVTVSS
VL: DIQMTQSPSSLSASVGDRVTITCTASSSVSSSYLHWYQQKPGSAPKLWIYSTSNLASGVPSRFSGSGSGTDYTLTISSLQPEDFATYYCHQYHRSPLTFGAGTKLEIKR
notes: Humanized antibody of JB24Chi, human IgG1 / kappa
B3: JB24H3L3 (antibody, human IgG1, kappa, V domains shown)
VH: B2 VH
VL: B2 VL with Q3V, A44S, S61G
notes: as for B2
B4: JB94H2L1 (antibody, human IgG1, kappa, V domains shown)
VH: QVQLVQSGAEVKKPGASVKVSCKASGYTFTSYWMHWVRQRPGQGLEWMGYINPSSGYTKSNQKFKDRVTLTADTSTSTAYMELSSLRSEDTAVYYCGRWLLSAWFAYWGQGTLVTVSS
VL: DIQMTQSPSSLSASVGDRVTITCKASQDINTYLSWFQQKPGKAPKSLIYRSNILVDGVPSRFSGSGSGQDFTLTISSLQPEDFAIYYCLQYDDFPYTFGQGTKLEIKR
notes: Humanized antibody of the 94 clone, human IgG1 / kappa
B5: JB94H3L3 (antibody, human IgG1, kappa, V domains shown)
VH: B4 VH with V5Q, V20L, M48I, V68A
VL: B4 VL with A43S, F71Y
notes: as for B4
B6: JB94Chi (antibody, human IgG1, kappa)
heavy: not shown
light: DIRMTQSPSSMYASLGERVTITCKASQDINTYLSWFQQKPGKSPKSLIYRSNILVDGVPSRFSGSGSGQDYSLTISSLEYEDMGIYYCLQYDDFPYTFGGGTKLEIKRTVAAPSVFIFPPSDEQLKSGTASVVCLLNNFYPREAKVQWKVDNALQSGNSQESVTEQDSKDSTYSLSSTLTLSKADYEKHKVYACEVTHQGLSSPVTKSFNRGEC
notes: Chimeric antibody: mouse Fv of 94A12G11F with human IgG1 and human kappa constant regions
B7: 66F2A8D6 (antibody, mouse IgG1, kappa)
heavy: QVHLQQSGAELAKPGASVNLSCKASGYAFTSYWMHWVKQRPGQGLEWIGYINPSSGLAKYNQKFKDKATLTTDKSSNTAYMQLSSLTYDDSAVYYCGRWLLSAWFAYWGQGTLVTVSAAKTTPPSVYPLAPGSAAQTNSMVTLGCLVKGYFPEPVTVTWNSGSLSSGVHTFPAVLQSDLYTLSSSVTVPSSTWPSETVTCNVAHPASSTKVDKKIVPRDCGCKPCICTVPEVSSVFIFPPKPKDVLTITLTPKVTCVVVDISKDDPEVQFSWFVDDVEVHTAQTQPREEQFNSTFRSVSELPIMHQDWLNGKEFKCRVNSAAFPAPIEKTISKTKGRPKAPQVYTIPPPKEQMAKDKVSLTCMITDFFPEDITVEWQWNGQPAENYKNTQPIMDTDGSYFVYSKLNVQKSNWEAGNTFTCSVLHEGLHNHHTEKSLSHSPGK
light: DIKMTQSPSSIYASLGERVTITCKASQGINTYLSWFQQKPGKSPKTLIYRANILVDGVPSRFSGSGSGQDYSLTINSLEYEDMGIYYCLQYDEFPYTFGGGTKLEIKRADAAPTVSIFPPSSEQLTSGGASVVCFLNNFYPKDINVKWKIDGSERQNGVLNSWTDQDSKDSTYSMSSTLTLTKDEYERHNSYTCEATHKTSTSPIVKSFNRNEC
notes: Hybridoma antibody, mouse IgG1 / mouse kappa full chains

How the values were obtained:
[1] = target: T1, cynomolgus CD73 on the cell surface (293T/17-cynoCD73 cells) (cynomolgus (Macaca fascicularis), UniProt P21589 27-547 (human entry)); test: cell-based or functional assay
T1 chain: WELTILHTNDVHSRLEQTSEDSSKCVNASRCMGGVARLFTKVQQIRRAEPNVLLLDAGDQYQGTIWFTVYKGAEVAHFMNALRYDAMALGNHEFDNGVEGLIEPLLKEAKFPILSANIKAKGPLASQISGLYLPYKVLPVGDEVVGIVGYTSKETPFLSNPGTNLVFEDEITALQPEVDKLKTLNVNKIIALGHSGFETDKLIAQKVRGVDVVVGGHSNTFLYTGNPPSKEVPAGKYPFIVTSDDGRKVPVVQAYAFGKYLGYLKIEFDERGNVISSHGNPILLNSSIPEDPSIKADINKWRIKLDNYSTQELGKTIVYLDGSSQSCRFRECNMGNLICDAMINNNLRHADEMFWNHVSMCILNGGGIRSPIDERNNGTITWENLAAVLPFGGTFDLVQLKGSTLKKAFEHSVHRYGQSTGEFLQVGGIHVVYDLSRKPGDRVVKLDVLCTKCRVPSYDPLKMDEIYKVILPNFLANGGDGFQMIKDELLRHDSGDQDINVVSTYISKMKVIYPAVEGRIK

[2] = target: T2, human CD73 ecto-domain recombinant protein (huCD73) (human, UniProt P21589 27-547); test: indirect ELISA, coated huCD73 recombinant protein, curve fit
T2 construct: also called soluble huCD73; soluble recombinant CD73
T2 sequence: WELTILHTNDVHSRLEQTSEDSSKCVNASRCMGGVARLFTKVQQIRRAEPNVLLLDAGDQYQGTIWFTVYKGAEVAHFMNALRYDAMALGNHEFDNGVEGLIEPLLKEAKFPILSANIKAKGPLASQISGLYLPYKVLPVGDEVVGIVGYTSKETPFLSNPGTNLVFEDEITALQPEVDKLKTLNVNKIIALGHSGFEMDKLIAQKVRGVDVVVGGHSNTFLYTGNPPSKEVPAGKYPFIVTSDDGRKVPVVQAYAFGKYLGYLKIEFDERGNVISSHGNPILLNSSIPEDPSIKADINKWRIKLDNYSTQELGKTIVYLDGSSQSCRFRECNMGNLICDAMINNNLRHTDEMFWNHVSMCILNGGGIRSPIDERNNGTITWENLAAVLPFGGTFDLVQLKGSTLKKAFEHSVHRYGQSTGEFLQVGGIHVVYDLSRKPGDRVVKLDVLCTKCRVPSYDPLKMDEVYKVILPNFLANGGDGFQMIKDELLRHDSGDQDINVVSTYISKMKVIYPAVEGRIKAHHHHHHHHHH
Protocol: (§1) Incubated with gradient diluted 100 μL/well of antibodies for 1 h at room temperature. After the plates were washed 3 times with 200 ul/well of PBST, 100 ul of diluted HRP-labeled secondary antibody at a ratio of 1:5000 was added to each well, and the plates were incubated for 1 hour at room temperature. The plates were washed 3 times with 200 ul/well of PBST, 100 ul of TMB was added to each well and reacted for 5 minutes at room temperature in the dark. […] read the OD value. The affinity of humanized antibodies and parent antibodies were similar to the antigen (table 9).

[3] = target: T2, human CD73 ecto-domain recombinant …; test: indirect ELISA, plate coated with 1 ug/ml huCD73 recombinant protein, HRP-labelled secondary antibody, RFU
Protocol: as §1

[4] = target: T1, cynomolgus CD73 on the cell surface …; test: flow cytometry on 293T/17-Cyno CD73 cells
Protocol: (§2) 2×10⁶ cells resuspended in PBS buffer were distributed into 96-well plates and incubated with gradient diluted humanized antibodies for 1 h at refrigerator 4° C. or on ice, then the cells was centrifuged for 3 min 1500 rpm at 4° C. and washed three times by PBS, and diluted APC-labeled goat anti-human polyclonal antibody (Biolegend) were incubated for 30 min at refrigerator 4° C. Finally, the cells were washed three times with PBS as described above and analyzed on MACSQuant flow cytometer. GraphPad Prism software was used to generate data graphs and statistical affinity data.
(§3) The samples to be tested were incubated for 1 h at 4° C. after gradient dilution. After washing, 100 μL of APC-labeled secondary antibody was added to each well and incubated for 30 min. After washing, detecting on machine and the fluorescence value was read. GraphPad Prism software was used to generate data graphs and statistical affinity data.

[5] = target: T1, cynomolgus CD73 on the cell surface …; test: flow cytometry on 293T/17-Cyno CD73 cells, curve fit
Protocol: as §2, §3

[6] = target: T2, human CD73 ecto-domain recombinant …; test: indirect ELISA, coated huCD73 recombinant protein
Protocol: as §1

[7] = target: T2, human CD73 ecto-domain recombinant …; test: indirect ELISA, coated soluble huCD73, curve fit
Protocol: (§4) The indirect ELISA method was applied to evaluate the binding ability of each positive clone to soluble huCD73 protein. Soluble huCD73 was coated, and gradient diluted samples were incubated, then HPR-labeled secondary antibody was added, finally TMB was added to develop the color, and OD450 was read after termination.
(§5) 1 ug/ml of recombinant CD73 protein was coated on ELISA plates (Coning), incubate overnight at 4° C. The next day, wash 5 times in PBS and blocked with 200 ul/well 2% skimmed milk, a certain dose range of CD73 antibodies were incubated for 1 h at room temperature. Wash 5 times with PBST washing buffer (PBS, 0.05% Tween 20), add HRP-conjugated goat anti-mouse IgG (H+L) (Promega) and incubate at room temperature for 1 h to detect bound anti-CD73 antibodies; wash the plate 5 times again and add TMB (Life Technologies) for color development for 5 to 10 min; finally the reaction was stopped by adding 1N HCl, and the OD value was measured at 450 nm. GraphPad Prism software was used to generate data graphs and statistical affinity data.

[8] = target: T2, human CD73 ecto-domain recombinant …; test: indirect ELISA, coated soluble huCD73, HRP-labelled secondary antibody, OD450
Protocol: as §4, §5

[9] = target: T1, cynomolgus CD73 on the cell surface …; test: cell-based or functional assay
[10] = target: T2, human CD73 ecto-domain recombinant …; test: indirect ELISA, coated soluble huCD73
Protocol: as §4, §5

[11] = target: T2, human CD73 ecto-domain recombinant …; test: cell-based or functional assay

Row | Binder | IC50, blockade of 5'exonuclease activity on 293T/17-Cyno CD73 cells [1] [pM] | Bottom [2] [OD value] | Top [2] [OD value] | EC50 (read off the curve) [3] [µg/mL] | EC50 [4] [pM] | Bottom [5] [fluorescence] | Top [5] [fluorescence] | EC50 [6] [pM] | Bottom [7] [OD450] | Top [7] [OD450] | EC50 (read off the curve) [8] [pM] | IC50, blockade of 5'exonuclease activity on 293T/17-Cyno CD73 cells [9] [pM] | EC50 [10] [pM] | Bottom (lower plateau of the fitted curve), blockade of soluble huCD73 enzyme activity (AMP hydrolysis, luciferase/CellTiter-Glo) [11] | IC50, blockade of soluble huCD73 enzyme activity (AMP hydrolysis, luciferase/CellTiter-Glo) [11] [pM] | Top (upper plateau of the fitted curve), blockade of soluble huCD73 enzyme activity (AMP hydrolysis, luciferase/CellTiter-Glo) [11]
1 | B1 | 21 | – | – | – | – | – | – | – | – | – | – | – | – | – | – | –
2 | B2 | 4 | 89.1 | 7140 | ~0.2 | 3590 | 0.509 | 48.7 | 20.8 | – | – | – | – | – | – | – | –
3 | B3 | 3 | 9.8 | 7310 | ~0.2 | 3730 | 0.917 | 34 | 22.8 | – | – | – | – | – | – | – | –
4 | B4 | 0.1 | -142 | 7110 | ~0.02 | 7970 | 0.22 | 82 | 25.2 | – | – | – | – | – | – | – | –
5 | B5 | 2 | 320 | 8900 | ~0.03 | 9820 | 1.4 | 125 | 29.2 | – | – | – | – | – | – | – | –
6 | B6 | 1 | 152 | 8470 | ~0.03 | 8590 | 1.45 | 124 | 35.7 | – | – | – | – | – | – | – | –
7 | B7 | – | – | – | – | – | – | – | – | 0.165 | 3.11 | ~200 | 77 | 153 | 6.36 | 1960 | 86.1
